For 2 molecules, EC50 results are on record in patent US20180051085A1 (published 2018).

Experiment [1] has as its target T1, recombinant human PD-1-His (human, UniProt Q15116 25-167, limits assumed).
T1 construct: also called recombinant PD-1-His; not shown: His tag
Description: binding to recombinant human PD-1-His (FIG. 8).

For experiment [2], the target named is T2, human PD-1 expressed on cells (human, UniProt Q15116 25-288).
T2 construct: whole, on cells; also called SpESFX-2D1
The experiment is described as follows: binding to 2D1 cells transfected with human PD-1 (FIG. 9).

T1 sequence (Q15116 25-167 limits assumed): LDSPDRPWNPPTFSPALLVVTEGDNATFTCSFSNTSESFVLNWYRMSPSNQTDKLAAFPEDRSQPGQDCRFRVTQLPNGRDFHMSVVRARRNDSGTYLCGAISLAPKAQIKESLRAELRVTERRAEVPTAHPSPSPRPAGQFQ
T2 sequence (Q15116 25-288): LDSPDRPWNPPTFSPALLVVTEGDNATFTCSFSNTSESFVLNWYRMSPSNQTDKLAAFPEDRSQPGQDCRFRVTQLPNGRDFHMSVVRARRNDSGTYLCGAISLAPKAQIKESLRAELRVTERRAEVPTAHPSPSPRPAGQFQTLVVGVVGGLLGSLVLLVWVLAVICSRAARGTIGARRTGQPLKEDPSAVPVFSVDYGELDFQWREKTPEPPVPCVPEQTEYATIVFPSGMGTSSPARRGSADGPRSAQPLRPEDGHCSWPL

B1: humanized anti-PD-1 antibody hPD-1-v5 (antibody, V domains shown)
VH: QVQLVESGGGLVKPGGSLRLSCAASGFAFSSNDMSWVRQAPGKGLEWVATISGGGINTYYPDSVKGRFTISRDNAKNTLYLQMNSLRAEDTAVYYCARRSNYAWFAYWGQGTPVTVSA
VL: DIQLTQSPASLAVSLGQRATISCRASESVDTYGISFMNWFQQKPGQPPKLLISPNQGSGVPARFSGSGSGTDFTLTINSLEAEDTAVYFCQQSKEVPWTFGGGTKLEIK
notes: also called version 5 (V5) antibody
What is called EC50 is the concentration giving half of the maximal effect. As to B1, the concentration for a half-maximal effect (EC50) was determined as 0.148 nM in experiment [1] and 3.8 nM in experiment [2].

B2: chimeric anti-PD-1 antibody 2G9 (IMMU-cPD-1) (antibody, V domains shown)
VH: VKLQESGGGLVKPGGSLKLSCAASGFAFSSNDMSWVRQTPEKRLEWVATISGGGINTYYPDSVKGRFTISRDNARNTLDLQMSSLRSEDTALYYCARRSNYAWFAYWGQGTPVTVSA
VL: not shown
Take B2: the half-maximal effective concentration (EC50) in experiment [1] was found to be 0.043 nM; in experiment [2], 1.1 nM.
